Patent US20090311253A1 (AbbVie / Abbott, published 2009)

Legend:
Recombinant Human VEGF [1] = molecular target: T1, Recombinant Human VEGF (human, UniProt P15692-4 27-191); assay: Biacore SPR
T1 construct: also called VEGF165
Experimental: (§1) The BIACORE assay (Biacore, Inc, Piscataway, N.J.) determines the affinity of antibodies or DVD-Ig with kinetic measurements of on-rate and off-rate constants. Binding of antibodies or DVD-Ig to a target antigen (for example, a purified recombinant target antigen) is determined by surface plasmon resonance-based measurements with a BiacoreR 1000 or 3000 instrument (Biacore® AB, Uppsala, Sweden) using running HBS-EP (10 mM HEPES [pH 7.4], 150 mM NaCl, 3 mM EDTA, and 0.005% surfactant P20) at 25° C. All chemicals are obtained from Biacore® AB (Uppsala, Sweden) or otherwise from a different source as described in the text. For example, approximately 5000 RU of goat anti-mouse IgG, (Fcγ), fragment specific polyclonal antibody (Pierce Biotechnology Inc, Rockford, Ill.) diluted in 10 mM sodium acetate (pH 4.5) is directly immobilized across a CM5 research grade biosensor chip using a standard amine coupling kit according to manufacturer's instructions and procedures at 25 μg/ml. Unreacted moieties on the biosensor surface are blocked with ethanolamine. Modified carboxymethyl dextran surface in flowcell 2 and 4 is used as a reaction surface. Unmodified carboxymethyl dextran without goat anti-mouse IgG in flow cell 1 and 3 is used as the reference surface. For kinetic analysis, rate equations derived from the 1:1 Langmuir binding model are fitted simultaneously to association and dissociation phases of all eight injections (using global fit analysis) with the use of Biaevaluation 4.0.1 software. Purified antibodies or DVD-Ig are diluted in HEPES-buffered saline for capture across goat anti-mouse IgG specific reaction surfaces. Antibodies or DVD-Ig to be captured as a ligand (25 μg/ml) are injected over reaction matrices at a flow rate of 5 μl/min. The association and dissociation rate constants, kₒₙ (M⁻¹s⁻¹) and koff (s⁻¹) are determined under a continuous flow rate of 25 μl/min. Rate constants are derived by making kinetic binding measurements at different antigen concentrations ranging from […]. The equilibrium dissociation constant (M) of the reaction between antibodies or DVD-Igs and the target antigen is then calculated from the kinetic rate constants by the following formula: KD=koff/kₒₙ. Binding is recorded as a function of time and kinetic rate constants are calculated.

Recombinant Human IL-1β [2] = molecular target: T2, Recombinant Human IL-1β (human, UniProt P01584 117-269); assay: Biacore SPR
T2 construct: also called IL-1b; IL-1B
Experimental: as §1

Recombinant Human VEGF [3] = molecular target: T1, Recombinant Human VEGF; assay: direct bind ELISA
Experimental: (§2) Enzyme Linked Immunosorbent Assays to screen for antibodies that bind a desired target antigen were performed as follows. High bind ELISA plates (Corning Costar # 3369, Acton, Mass.) were coated with 100 μL/well of 10 μg/ml of desired target antigen (R&D Systems, Minneapolis, Minn.) or desired target antigen extra-cellular domain/FC fusion protein (R&D Systems, Minneapolis, Minn.) or monoclonal mouse anti-polyhistidine antibody (R&D Systems # MAB050, Minneapolis, Minn.) in phosphate buffered saline (10×PBS, Abbott Bioresearch Center, Media Prep# MPS-073, Worcester, Mass.) overnight at 4° C. Plates were washed four times with PBS containing 0.02% Tween 20. Plates were blocked by the addition of 300 μL/well blocking solution (non-fat dry milk powder, various retail suppliers, diluted to 2% in PBS) for ½ hour at room temperature. Plates were washed four times after blocking with PBS containing 0.02% Tween 20.
(§3) Plates were washed 4 times with PBS containing 0.02% Tween 20.
(§4) One hundred microliters of enhanced TMB solution (Neogen Corp. #308177, K Blue, Lexington, Ky.) was added to each well and incubated for 10 minutes at room temperature. The reaction was stopped by the addition of 50 μL 1N sulphuric acid. Plates were read spectrophotometrically at a wavelength of 450 nm.

Recombinant Human IL-1β [4] = molecular target: T2, Recombinant Human IL-1β; assay: direct bind ELISA
Experimental: as §2, §3, §4

Recombinant Human IL-1β [5] = molecular target: T2, Recombinant Human IL-1β; assay: cell-based or functional assay
Recombinant Human Dkk-1 [6] = molecular target: T3, Recombinant Human Dkk-1 (human, UniProt O94907 32-266); assay: Biacore SPR
T3 construct: also called DKK-1/His
T3 sequence (looked up): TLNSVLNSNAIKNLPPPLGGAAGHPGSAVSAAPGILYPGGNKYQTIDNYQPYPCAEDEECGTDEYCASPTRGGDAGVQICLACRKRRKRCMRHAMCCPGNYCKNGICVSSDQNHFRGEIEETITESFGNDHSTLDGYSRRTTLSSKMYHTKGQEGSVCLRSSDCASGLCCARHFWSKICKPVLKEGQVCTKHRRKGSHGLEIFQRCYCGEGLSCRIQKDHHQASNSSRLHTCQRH
Experimental: as §1

Recombinant Human Dkk-1 [7] = molecular target: T3, Recombinant Human Dkk-1; assay: direct bind ELISA
Experimental: as §2, §3, §4

[8] = molecular target: T4, Recombinant Human TRANCE/RANKL/TNFSF 11 (human, UniProt O14788 69-317); assay: direct bind ELISA
T4 construct: extracellular domain
T4 sequence (looked up): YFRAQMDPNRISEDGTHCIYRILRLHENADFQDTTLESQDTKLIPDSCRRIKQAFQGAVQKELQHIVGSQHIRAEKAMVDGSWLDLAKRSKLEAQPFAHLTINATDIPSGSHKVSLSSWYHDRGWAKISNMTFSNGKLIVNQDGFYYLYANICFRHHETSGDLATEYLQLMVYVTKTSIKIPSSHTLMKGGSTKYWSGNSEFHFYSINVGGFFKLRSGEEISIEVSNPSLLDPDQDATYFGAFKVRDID
Experimental: as §2, §3, §4

CD20 on cells = molecular target: T5, CD20 on cells (UniProt P11836 1-297, limits assumed); assay: flow cytometry on cells, 2 µg/mL
T5 construct: whole, on cells
T5 sequence (looked up): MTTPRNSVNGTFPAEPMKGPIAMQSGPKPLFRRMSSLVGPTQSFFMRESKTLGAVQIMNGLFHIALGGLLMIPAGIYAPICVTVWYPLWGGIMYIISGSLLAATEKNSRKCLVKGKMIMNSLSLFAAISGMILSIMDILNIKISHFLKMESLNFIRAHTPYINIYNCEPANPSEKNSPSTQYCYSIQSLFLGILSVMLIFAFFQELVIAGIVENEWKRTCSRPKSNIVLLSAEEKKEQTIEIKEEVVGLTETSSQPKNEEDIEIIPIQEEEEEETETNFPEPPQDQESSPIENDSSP
Experimental: Stable cell lines overexpressing a cell-surface antigen of interest or human tumor cell lines were harvested from tissue culture flasks and resuspended in phosphate buffered saline (PBS) containing 5% fetal bovine serum (PBS/FBS). Prior to staining, human tumor cells were incubated on ice with (100 μl) human IgG at 5 μg/ml in PBS/FCS. 1−5×10⁵ cells were incubated with antibody or DVD-Ig (2 μg/mL) in PBS/FBS for 30-60 minutes on ice. […] After 30 minutes incubation on ice, cells were washed twice and resuspended in PBS/FBS. Fluorescence was measured using a Becton Dickinson FACSCalibur (Becton Dickinson, San Jose, Calif.).
The geometric mean is the n root of the multiplication product of n fluorescent signals (a1×a2×a3 . . . an). With log-transformed data the geometric mean is used to normalize the weighting of the data distribution.

Recombinant Human SOST [9] = molecular target: T6, Recombinant Human SOST (human, UniProt Q9BQB4 24-213); assay: Biacore SPR
T6 construct: also called SOST/His; Sclerostin
T6 sequence (looked up): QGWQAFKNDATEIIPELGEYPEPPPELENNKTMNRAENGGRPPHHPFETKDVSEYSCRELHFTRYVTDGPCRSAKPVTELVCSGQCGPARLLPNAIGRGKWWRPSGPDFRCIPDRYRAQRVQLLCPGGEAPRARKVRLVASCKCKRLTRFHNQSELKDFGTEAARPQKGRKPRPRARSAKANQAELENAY
Experimental: as §1

Recombinant Human SOST [10] = molecular target: T6, Recombinant Human SOST; assay: direct bind ELISA
Experimental: as §2, §3, §4

Recombinant Human β-NGF [11] = molecular target: T7, Recombinant Human β-NGF (human, UniProt P01138 122-241); assay: Biacore SPR
T7 sequence (P01138 122-241 limits assumed): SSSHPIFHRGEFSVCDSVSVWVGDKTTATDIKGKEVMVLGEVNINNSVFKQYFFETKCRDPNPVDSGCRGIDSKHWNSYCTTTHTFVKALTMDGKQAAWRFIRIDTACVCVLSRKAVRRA
Experimental: as §1

Recombinant Human β-NGF [12] = molecular target: T7, Recombinant Human β-NGF; assay: direct bind ELISA
Experimental: as §2, §3, §4

B1: DVD124 (bispecific antibody, human IgG1, kappa)
heavy: not shown
light: DIQMTQSPSSLSASVGDRVTITCSASQDISNYLNWYQQKPGKAPKVLIYFTSSLHSGVPSRFSGSGSGTDFTLTISSLQPEDFATYYCQQYSTVPWTFGQGTKVEIKRTVAAPEIVLTQSPDFQSVTPKEKVTITCRASQSIGSSLHWYQQKPDQSPKLLIKYASQSFSGVPSRFSGSGSGTDFTLTINSLEAEDAAAYYCHQSSSLPFTFGPGTKVDIKRTVAAPSVFIFPPSDEQLKSGTASVVCLLNNFYPREAKVQWKVDNALQSGNSQESVTEQDSKDSTYSLSSTLTLSKADYEKHKVYACEVTHQGLSSPVTKSFNRGEC
notes: outer AB014, inner AB032; vectors V1, V2
Kd (Recombinant Human VEGF [1]): 0.0467 nM | koff (Recombinant Human VEGF [1]): 4.03e-05 s⁻¹ | kon (Recombinant Human VEGF [1]): 863000 M⁻¹ s⁻¹ | Kd (Recombinant Human IL-1β [2]): 1.41 nM | koff (Recombinant Human IL-1β [2]): 9.32e-05 s⁻¹ | kon (Recombinant Human IL-1β [2]): 66000 M⁻¹ s⁻¹ | EC50 (Recombinant Human VEGF [3]): 3.49 nM | EC50 (Recombinant Human IL-1β [4]): 459 nM | IL-1β Neutralization Assay EC50 (MRC5 cells, hIL-8) (Recombinant Human IL-1β [5]): 3.63 nM

B2: AB023 (antibody, human IgG1, kappa, V domains shown)
VH: EVQLVESGGGLVQPANSLKLSCAASGFTFSDYAMAWVRQSPKKGLEWVATIIYDGSSTYYRDSVKGRFTISRDNAKSTLYLQMDSLRSEDTATYYCATGLGIATDYFDYWGQGVLVTVSS
VL: DIRMTQSPASLSASLGETVNIECLASEDIYSDLAWYQQKPGKSPQLLIYNANSLQNGVPSRFSGSGSGTQYSLKINSLQSEDVATYFCQQYNNYPPTFGGGTKLELKR
notes: vectors V1 and V2; also called anti-DKK parent antibody
Kd (Recombinant Human Dkk-1 [6]): < 0.0087 nM | koff (Recombinant Human Dkk-1 [6]): 8.7e-05 s⁻¹ | kon (Recombinant Human Dkk-1 [6]): > 1e+07 M⁻¹ s⁻¹ | EC50 (Recombinant Human Dkk-1 [7]): 6.83 nM

B3: DVD165 (bispecific antibody, human IgG1, kappa)
heavy: not shown
light: QIVLSQSPAILSPSPGEKVTMTCRASSSVSYIHWFQQKPGSSPKPWIYATSNLASGVPVRFSGSGSGTSYSLTISRVEAEDAATYYCQQWTSNPPTFGGGTKLEIKRTVAAPEIVLTQSPGTLSLSPGERATLSCRASQSVRGRYLAWYQQKPGQAPRLLIYGASSRATGIPDRFSGSGSGTDFTLTISRLEPEDFAVFYCQQYGSSPRTFGQGTKVEIKRTVAAPSVFIFPPSDEQLKSGTASVVCLLNNFYPREAKVQWKVDNALQSGNSQESVTEQDSKDSTYSLSSTLTLSKADYEKHKVYACEVTHQGLSSPVTKSFNRGEC
notes: vectors V1, V2; also called CD-20 and RANKL DVD-Ig
EC50 [8]: 0.32 nM | FACS Geometric Mean (CD20 on cells): 1890

B4: AB022 (antibody, human IgG1, kappa, V domains shown)
VH: EVQLQQSGPELVTPGASVKISCKASGYTFTDHYMSWVKQSHGKSLEWIGDINPYSGETTYNQKFKGTATLTVDKSSSIAYMEIRGLTSEDSAVYYCARDDYDASPFAYWGQGTLVTVSA
VL: DVQMIQSPSSLSASLGDIVTMTCQASQGTSINLNWFQQKPGKAPKLLIYGSSNLEDGVPSRFSGSRYGTDFTLTISSLEDEDLATYFCLQHSYLPYTFGGGTKLEIKR
notes: vectors V1 and V2
Kd (Recombinant Human SOST [9]): 0.0379 nM | koff (Recombinant Human SOST [9]): 2.44e-05 s⁻¹ | kon (Recombinant Human SOST [9]): 642000 M⁻¹ s⁻¹ | EC50 (Recombinant Human SOST [10]): 0.66 nM

B5: AB001 (antibody, human IgG1, kappa, V domains shown)
VH: QVQLQQPGAELVKPGASVKMSCKASGYTFTSYNMHWVKQTPGRGLEWIGAIYPGNGDTSYNQKFKGKATLTADKSSSTAYMQLSSLTSEDSAVYYCARSTYYGGDWYFNVWGAGTTVTVSA
VL: QIVLSQSPAILSPSPGEKVTMTCRASSSVSYIHWFQQKPGSSPKPWIYATSNLASGVPVRFSGSGSGTSYSLTISRVEAEDAATYYCQQWTSNPPTFGGGTKLEIKR
notes: vectors V1 (wild type hIgG1 constant) and V2 (kappa); also called anti-CD20 parent antibody
FACS Geometric Mean (CD20 on cells): 1350

B6: AB020 (antibody, human IgG1, kappa, V domains shown)
VH: QVQLQESGPGLVKPSETLSLTCTVSGFSLIGYDLNWIRQPPGKGLEWIGIIWGDGTTDYNSAVKSRVTISKDTSKNQFSLKLSSVTAADTAVYYCARGGYWYATSYYFDYWGQGTLVTVSS
VL: DIQMTQSPSSLSASVGDRVTITCRASQSISNNLNWYQQKPGKAPKLLIYYTSRFHSGVPSRFSGSGSGTDFTFTISSLQPEDIATYYCQQEHTLPYTFGQGTKLEIKR
notes: vectors V1 and V2; also called anti-NGF parent antibody
Kd (Recombinant Human β-NGF [11]): < 0.000926 nM | koff (Recombinant Human β-NGF [11]): < 1e-06 s⁻¹ | kon (Recombinant Human β-NGF [11]): 1.08e+06 M⁻¹ s⁻¹ | EC50 (Recombinant Human β-NGF [12]): 9 nM
